The values below come from publication PMC12546588 (Nature Communications, 2025).

In data set [1] the target is human TRPC3 channel (hTRPC3), WT full length, tetramer in nanodiscs (human, UniProt Q13507). Kind of data set: cryo-EM structure.
Data set [2] deals with the molecule itself. Nature of the data set: cryo-EM structure.

B1: Nanobody 1-94 (VHH)
VHH: QVQLQESGGGSVQSGGSLRLSCAASGYTYSYSGYCMGWFRQAPGKEREGVATIDGAGNTKYADSVKGRFTISRDNAKKTLYLQMNSLKPEDTAMYYCAARVYSYSSDVDCRPSFTTRFPYSGQGTQVTV
What is called stoichiometry N is the number of molecules, sites or subunits per partner or assembly. Regarding B1, the “stoichiometry N” value in data set [1] is 4 nanobody molecules per hTRPC3 tetramer.

B2: human TRPC3 channel (hTRPC3), WT full length, tetramer in nanodiscs (natural protein, UniProt Q13507 86-921, looked up)
chain: MREKGRRQAVRGPAFMFNDRGTSLTAEEERFLDAAEYGNIPVVRKMLEESKTLNVNCVDYMGQNALQLAVGNEHLEVTELLLKKENLARIGDALLLAISKGYVRIVEAILNHPGFAASKRLTLSPCEQELQDDDFYAYDEDGTRFSPDITPIILAAHCQKYEVVHMLLMKGARIERPHDYFCKCGDCMEKQRHDSFSHSRSRINAYKGLASPAYLSLSSEDPVLTALELSNELAKLANIEKEFKNDYRKLSMQCKDFVVGVLDLCRDSEEVEAILNGDLESAEPLEVHRHKASLSRVKLAIKYEVKKFVAHPNCQQQLLTIWYENLSGLREQTIAIKCLVVLVVALGLPFLAIGYWIAPCSRLGKILRSPFMKFVAHAASFIIFLGLLVFNASDRFEGITTLPNITVTDYPKQIFRVKTTQFTWTEMLIMVWVLGMMWSECKELWLEGPREYILQLWNVLDFGMLSIFIAAFTARFLAFLQATKAQQYVDSYVQESDLSEVTLPPEIQYFTYARDKWLPSDPQIISEGLYAIAVVLSFSRIAYILPANESFGPLQISLGRTVKDIFKFMVLFIMVFFAFMIGMFILYSYYLGAKVNAAFTTVEESFKTLFWSIFGLSEVTSVVLKYDHKFIENIGYVLYGIYNVTMVVVLLNMLIAMINSSYQEIEDDSDVEWKFARSKLWLSYFDDGKTLPPPFSLVPSPKSFVYFIMRIVNFPKCRRRRLQKDIEMGMGNSKSRLNLFTQSNSRVFESHSFNSILNQPTRYQQIMKRLIKRYVLKAQVDKENDEVNEGELKEIKQDISSLRYELLEDKSQATEELAILIHKLSEKLNPSMLRCE
With B2, the “stoichiometry N” value in data set [2] worked out at 4 subunits.

B3: Nanobody 3-37 (VHH)
VHH: QVQLQESGGGSVQSGGSLRLSCAASGYTYSRSCLGWFRQAPGKERERVATIDSDGSTSYADSVKGRFTISQDNAKNTLYLQMNSLKSEDTAMYYCASKYGSRCQNSLGYMYRGQGTQVTVSS
In the case of B3, in data set [1], the “stoichiometry N” value was 2 nanobody molecules per hTRPC3 tetramer.

B4: Nanobody 1-25 (VHH)
VHH: QVQLQESGGGSVQSGGSLRLSCAASGDKNYYMGWFRQAPGKEREGVAAIKSDGETRYADSSVTGRFTISQDNAKKTLYLQMTSLKPEDTAMYYCAADRYIGTRWKYVRPEDYSYWGQGTQVTVSS
For the molecule B4, the “stoichiometry N” value in data set [1] was 4 nanobody molecules per hTRPC3 tetramer.
